# Laboratory results: IntAct's records for PubMed 15302918
# B1: Nuclear receptor subfamily 2 group C member 2 (Homo sapiens), P49116 (parent)
# chain: MTSPSPRIQIISTDSAVASPQRIQIVTDQQTGQKIQIVTAVDASGSPKQQFILTSPDGAGTGKVILASPETSSAKQLIFTTSDNLVPGRIQIVTDSASVERLLGKTDVQRPQVVEYCVVCGDKASGRHYGAVSCEGCKGFFKRSVRKNLTYSCRSNQDCIINKHHRNRCQFCRLKKCLEMGMKMESVQSERKPFDVQREKPSNCAASTEKIYIRKDLRSPLIATPTFVADKDGARQTGLLDPGMLVNIQQPLIREDGTVLLATDSKAETSQGALGTLANVVTSLANLSESLNNGDTSEIQPEDQSASEITRAFDTLAKALNTTDSSSSPSLADGIDTSGGGSIHVISRDQSTPIIEVEGPLLSDTHVTFKLTMPSPMPEYLNVHYICESASRLLFLSMHWARSIPAFQALGQDCNTSLVRACWNELFTLGLAQCAQVMSLSTILAAIVNHLQNSIQEDKLSGDRIKQVMEHIWKLQEFCNSMAKLDIDGYEYAYLKAIVLFSPDHPGLTSTSQIEKFQEKAQMELQDYVQKTYSEDTYRLARILVRLPALRLMSSNITEELFFTGLIGNVSIDSIIPYILKMETAEYNGQITGASL
# partner: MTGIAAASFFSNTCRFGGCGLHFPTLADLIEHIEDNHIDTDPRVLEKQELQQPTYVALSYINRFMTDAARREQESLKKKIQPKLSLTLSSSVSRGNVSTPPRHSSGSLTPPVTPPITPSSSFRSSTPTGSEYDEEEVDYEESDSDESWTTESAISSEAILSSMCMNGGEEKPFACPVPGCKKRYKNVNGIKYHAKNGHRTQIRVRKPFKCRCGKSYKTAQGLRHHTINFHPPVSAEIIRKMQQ
# B2: Juxtaposed with another zinc finger protein 1 (Homo sapiens), Q86VZ6 (parent)
# chain: B1 partner
# partner: B1 chain
# Variants of: B1
# Conditions: with jazf1_human JAZF1, Q86VZ6
row,effect of a mutation on the interaction,Variant
1,decreasing interaction strength,I576N

# Variants of: B2
# Conditions: with nr2c2_human NR2C2, P49116
row,effect of a mutation on the interaction,Variant
1,disrupting interaction strength,Y60D
2,decreasing interaction strength,L76P
3,with no effect,A69P
4,with no effect,K47P
